Measurements from patent US6486303 (UNIVERSITY OF MEDICINE AND DENTISTRY OF NEW JERSEY, dated 2002).

Biological target: T1, rat LH receptor (rat, UniProt P16235 27-700)
T1 construct: whole, on cells; also called LH receptors
Assay: not described

T1 sequence (P16235 27-700): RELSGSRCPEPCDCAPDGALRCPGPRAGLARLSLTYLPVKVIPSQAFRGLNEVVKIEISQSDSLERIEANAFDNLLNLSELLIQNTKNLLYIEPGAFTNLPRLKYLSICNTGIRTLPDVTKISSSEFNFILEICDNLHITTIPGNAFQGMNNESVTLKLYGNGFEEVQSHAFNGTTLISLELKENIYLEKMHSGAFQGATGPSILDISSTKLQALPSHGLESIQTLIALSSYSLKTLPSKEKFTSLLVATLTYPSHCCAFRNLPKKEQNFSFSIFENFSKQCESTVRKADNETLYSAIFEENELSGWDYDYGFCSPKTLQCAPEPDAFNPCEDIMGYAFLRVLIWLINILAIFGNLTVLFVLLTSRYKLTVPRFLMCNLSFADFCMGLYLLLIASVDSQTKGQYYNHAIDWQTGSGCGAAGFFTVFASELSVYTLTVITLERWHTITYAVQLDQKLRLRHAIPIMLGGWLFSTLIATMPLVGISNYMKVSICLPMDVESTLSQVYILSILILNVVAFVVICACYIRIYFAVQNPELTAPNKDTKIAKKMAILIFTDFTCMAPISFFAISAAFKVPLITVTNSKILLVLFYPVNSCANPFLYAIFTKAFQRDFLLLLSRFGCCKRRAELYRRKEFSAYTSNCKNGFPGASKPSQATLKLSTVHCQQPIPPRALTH

B1: Fos-αδ52 + Jun-hCGβ′ heterodimer (ligand)
alpha: not shown
beta: SCGGRIARLEEKVKTLKAQNSELASTANMLREQVAQLKQKVMGLRPRCRPINATLAVEKEGCPVCITVNTTICAGYCPTMTRVLQGVLPALPQVVCNYRDVRFESIRLPGCPRGVNPVVSYAVALSCQCALCRRSTTDCGGPKDHPLTCDDPRFQDSSSSKAPPPSLPSPSRLPGPSDTPILPQ
modifications: The Cys of the N-terminal SCGG in each chain is meant to form an intersubunit disulfide.
notes: Secreted from co-transfected COS-7 cells; also called Fos-Jun hCGαδ2; copies: 1 + 1
  binding result: binds
